This note sets out measurements from patent US20260297200.

This experiment addresses EGFR-His (human ECD) (human). As to the kind of experiment: BLI.

For the substance Cetuximab Fab-His, the Kd stood at 1.69 nM. That is a single-digit nanomolar value.
